Measured values taken from patent US20240182596A1 (TUBULIS, published 2024).

What was measured:
FcγRIIIa (CD16) (V158) = molecular target: T1, FcγRIIIa (CD16) (V158) (Homo sapiens, UniProt P08637); assay: Lumit FcγRIIIa (V158) Binding Immunoassay (Promega), left panel FcγRIIIa (CD16) (V158), competition with Tracer-LgBiT for FcγR-SmBiT, falling luminescence means binding, n=1
T1 construct: m21 joins both polymorphic variants; also called V158 variant of m21
Description: Luminescence is measured on a microplate reader Infinite M200 Pro (Tecan). Graphs show n=1.
Luminescence was measured on a microplate reader Infinite M200 Pro (Tecan). Graphs show n=1.

[1] = molecular target: T2, human Napi2b-mCherry on HEK293 cells (human, UniProt O95436 1-690); assay: flow cytometry on HEK293 cells stably expressing human full-length NaPi2b-mCherry, Alexa-dye anti-human IgG H+L secondary antibody, MFI ratio, one-site specific binding fit; the Kd table prints no unit, the concentration axis is in nM; second experiment on human cells, run beside the rat cells of FIG. 3D
T2 construct: also called Napi2b (SLC34A2); HEK293 cells overexpressing Napi2b
T2 sequence: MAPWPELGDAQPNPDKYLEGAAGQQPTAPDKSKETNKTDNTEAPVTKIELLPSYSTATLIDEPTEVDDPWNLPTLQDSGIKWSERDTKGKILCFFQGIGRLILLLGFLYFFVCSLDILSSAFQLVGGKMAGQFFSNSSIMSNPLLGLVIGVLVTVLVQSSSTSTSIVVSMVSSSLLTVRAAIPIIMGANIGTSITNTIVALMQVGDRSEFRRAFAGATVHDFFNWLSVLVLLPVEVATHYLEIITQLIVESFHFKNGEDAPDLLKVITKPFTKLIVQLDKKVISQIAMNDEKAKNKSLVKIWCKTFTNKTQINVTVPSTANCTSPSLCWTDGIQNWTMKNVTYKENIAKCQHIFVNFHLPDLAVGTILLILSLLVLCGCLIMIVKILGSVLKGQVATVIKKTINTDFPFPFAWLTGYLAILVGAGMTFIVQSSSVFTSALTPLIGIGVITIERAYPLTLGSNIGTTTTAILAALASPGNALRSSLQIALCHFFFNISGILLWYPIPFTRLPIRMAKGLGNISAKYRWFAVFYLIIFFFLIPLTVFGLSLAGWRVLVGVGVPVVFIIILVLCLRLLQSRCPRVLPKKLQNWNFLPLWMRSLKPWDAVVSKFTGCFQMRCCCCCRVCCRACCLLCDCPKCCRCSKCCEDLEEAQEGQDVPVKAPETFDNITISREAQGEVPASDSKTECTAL
Excerpt: (§1) HEK293 cells stably overexpressing human and rat Napi2b were generated by stable integration of a human or rat full-length Napi2b-mCherry-(GGGS)3x-mCherry expression construct under control of a human EF1 promoter and a Puromycin-selection cassette under a CMV promoter into the parental HEK293 cell line. In brief, cells were transfected with the linearized plasmids using Lipfectamine 2000 (Thermo Fisher) and selected with Puromycin antibiotic. Cells were then single cell cloned in 96-well plates via serial dilution under continuous antibiotic selection. Clones were screened for target expression via flow cytometry and mCherry fluorescence via flow cytometry and fluorescence microscopy. Target- and mCherry-positive clones were expanded and used for further experiments. […] Binding of antibodies was investigated on mCherry-positive cells. Mean fluorescence intensity (MFI) ratios were normalized to the secondary antibody control. The assay was performed in duplicates and data points were analyzed by a non-linear regression using a one-site specific binding model to derive KD values using Prism 9 software.

[2] = molecular target: T2, human Napi2b-mCherry on HEK293 cells; assay: flow cytometry on HEK293 cells stably expressing human full-length NaPi2b-mCherry, Alexa-dye anti-human IgG H+L secondary antibody, MFI ratio, one-site specific binding fit; the Kd table prints no unit, the concentration axis is in nM
Excerpt: as §1

[3] = molecular target: T3, human NaPi2b on NaPi2b-positive cell lines OVCAR-3 and HCC-78 (human, UniProt O95436 1-690); assay: flow cytometry on HCC-78 cells, one-site fit
T3 construct: Endogenous protein
T3 sequence: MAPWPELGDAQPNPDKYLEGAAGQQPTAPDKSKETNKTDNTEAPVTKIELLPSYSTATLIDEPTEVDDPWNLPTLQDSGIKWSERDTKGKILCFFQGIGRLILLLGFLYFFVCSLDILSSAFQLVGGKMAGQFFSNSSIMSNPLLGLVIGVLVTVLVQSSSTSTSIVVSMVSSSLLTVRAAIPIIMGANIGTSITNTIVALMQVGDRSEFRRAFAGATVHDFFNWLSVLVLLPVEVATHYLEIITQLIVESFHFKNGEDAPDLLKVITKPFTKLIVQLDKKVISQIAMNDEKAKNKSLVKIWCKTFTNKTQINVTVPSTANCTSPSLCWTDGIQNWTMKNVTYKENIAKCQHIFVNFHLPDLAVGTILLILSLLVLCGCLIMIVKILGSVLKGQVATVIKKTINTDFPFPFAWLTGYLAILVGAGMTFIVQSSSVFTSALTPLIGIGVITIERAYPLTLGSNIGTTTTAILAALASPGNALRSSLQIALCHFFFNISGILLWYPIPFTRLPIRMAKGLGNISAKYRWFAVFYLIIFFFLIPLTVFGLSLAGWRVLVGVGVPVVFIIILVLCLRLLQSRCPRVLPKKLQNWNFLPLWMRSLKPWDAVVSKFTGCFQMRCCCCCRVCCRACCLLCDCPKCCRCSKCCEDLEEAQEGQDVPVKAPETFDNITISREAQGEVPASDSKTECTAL
Description: To determine concentration-dependent binding, NaPi2b-positive OVCAR-3 and HCC-78 were incubated with antibodies in concentrations ranging from 0.00075 to 30 μg/ml, stained with an Alexa-dye-labeled anti-human IgG H+L secondary antibody (Thermo Fisher Scientific), and analyzed by flow cytometry. Mean fluorescence intensity (MFI) ratios were normalized to the non-specific binding control. The assay was performed in duplicates and data points were analyzed by a non-linear regression using a one-site specific binding model using Prism 9 software.

[4] = molecular target: T3, human NaPi2b on NaPi2b-positive cell …; assay: flow cytometry on OVCAR-3 cells; table column Binding KD (nmol/L), FACS (OVCAR-3)
FcγRIIa (CD32) (H131) = molecular target: T4, FcγRIIa (CD32) (H131) (Fused to the SmBiT luciferase fragment (Promega Lumit reagent), not carried in the letters); assay: Lumit FcγRIIa (H131) Binding Immunoassay (Promega), left panel FcγRIIa (CD32) (H131), competition with Tracer-LgBiT for FcγR-SmBiT, n=1
T4 construct: m20 joins both polymorphic variants; also called H131 variant of m20; not shown: SmBiT tag (and any linker or purification tag) of Promega's FcγR-SmBiT fusion
T4 chain: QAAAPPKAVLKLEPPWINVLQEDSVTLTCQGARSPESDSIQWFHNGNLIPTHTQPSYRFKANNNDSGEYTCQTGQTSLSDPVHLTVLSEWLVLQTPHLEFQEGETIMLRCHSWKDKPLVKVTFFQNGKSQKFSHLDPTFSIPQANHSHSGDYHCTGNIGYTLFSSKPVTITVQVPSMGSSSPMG

[5] = molecular target: T5, HEK293 cyno-NaPi2B-mCherry (Macaca fascicularis, UniProt A0A2K5UHY1); assay: flow cytometry on HEK293 cells stably expressing cynomolgus full-length NaPi2b-mCherry, Alexa-dye anti-human IgG H+L secondary antibody, MFI ratio, one-site specific binding fit; the Kd table prints no unit, the concentration axis is in nM
T5 construct: full-length mCherry fusion stably expressed on HEK293 cells; also called cynomolgus full-length NaPi2b-mCherry on HEK293 cells
T5 sequence (target on cells): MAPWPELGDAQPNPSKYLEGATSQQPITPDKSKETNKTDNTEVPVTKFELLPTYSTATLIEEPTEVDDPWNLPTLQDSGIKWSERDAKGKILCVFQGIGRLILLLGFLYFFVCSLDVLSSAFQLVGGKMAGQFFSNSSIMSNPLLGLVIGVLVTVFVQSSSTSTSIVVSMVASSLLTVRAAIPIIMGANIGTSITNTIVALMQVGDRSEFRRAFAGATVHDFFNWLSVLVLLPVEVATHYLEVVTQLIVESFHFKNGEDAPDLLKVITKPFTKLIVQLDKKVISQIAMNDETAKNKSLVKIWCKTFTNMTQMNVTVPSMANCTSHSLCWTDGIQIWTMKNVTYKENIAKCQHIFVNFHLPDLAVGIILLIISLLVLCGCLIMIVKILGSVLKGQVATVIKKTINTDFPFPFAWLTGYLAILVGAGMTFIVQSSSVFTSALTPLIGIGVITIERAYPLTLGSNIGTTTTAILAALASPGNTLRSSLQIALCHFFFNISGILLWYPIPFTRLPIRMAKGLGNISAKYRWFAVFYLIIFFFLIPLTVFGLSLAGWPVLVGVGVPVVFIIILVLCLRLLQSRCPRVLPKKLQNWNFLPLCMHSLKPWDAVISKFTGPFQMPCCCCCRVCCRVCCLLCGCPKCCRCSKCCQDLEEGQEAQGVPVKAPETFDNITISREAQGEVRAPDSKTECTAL
Excerpt: as §1

T1 sequence (P08637 17-208 F176V limits assumed): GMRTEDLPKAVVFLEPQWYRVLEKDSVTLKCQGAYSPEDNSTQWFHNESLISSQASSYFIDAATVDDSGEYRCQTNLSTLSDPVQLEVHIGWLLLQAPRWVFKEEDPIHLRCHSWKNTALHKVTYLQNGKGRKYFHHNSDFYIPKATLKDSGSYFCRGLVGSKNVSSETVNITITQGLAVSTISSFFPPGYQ

binding result (FcγRIIIa (CD16) (V158)): binds
Kd [1]: 0.609 nM
Kd [2]: 1.52 nM
Kd [3]: 0.42 µg/mL
Kd [4]: 2.7 nM
binding result (FcγRIIa (CD32) (H131)): no binding
Kd [5]: 1.43 nM
B1: AV25 mAb, LALA-silenced (AV25 HC-LALA) (antibody, human IgG1, kappa, L234A L235A)
heavy: not shown
light: DIQMTQSPSSLSASVGDRVTITCSASQDIGNFLNWYQQKPGKTVKVLIYYASSLYSGVPSRFSGSGSGTDYTLTISSLQPEDFATYYCQQYSKLPLTFGQGTKLELKRTVAAPSVFIFPPSDEQLKSGTASVVCLLNNFYPREAKVQWKVDNALQSGNSQESVTEQDSKDSTYSLSSTLTLSKADYEKHKVYACEVTHQGLSSPVTKSFNRGEC
notes: also called unmodified AV25 mAb
